Results from US8758763B2, “Archaeal polar lipid aggregates for administration to animals” (National Research Council of Canada, priority 2006, dated 2014).

B1: OVA/saline: OVA in saline, no adjuvant control (protein, UniProt P01012 2-386, looked up)
Ovalbumin: GSIGAASMEFCFDVFKELKVHHANENIFYCPIAIMSALAMVYLGAKDSTRTQINKVVRFDKLPGFGDSIEAQCGTSVNVHSSLRDILNQITKPNDVYSFSLASRLYAEERYPILPEYLQCVKELYRGGLEPINFQTAADQARELINSWVESQTNGIIRNVLQPSSVDSQTAMVLVNAIVFKGLWEKAFKDEDTQAMPFRVTEQESKPVQMMYQIGLFRVASMASEKMKILELPFASGTMSMLVLLPDEVSGLEQLESIINFEKLTEWTSSNVMEERKIKVYLPRMKMEEKYNLTSVLMAMGITDVFSSSANLSGISSAESLKISQAVHAAHAEINEAGREVVGSAEAGVDAASVSEEFRADHPFLFCIKHIATNAVLFFGRCVSP
B2: OVA/CaCl2: OVA in saline supplemented with 15 mM CaCl2, no adjuvant group (protein, UniProt P01012 2-386, looked up)
Ovalbumin: GSIGAASMEFCFDVFKELKVHHANENIFYCPIAIMSALAMVYLGAKDSTRTQINKVVRFDKLPGFGDSIEAQCGTSVNVHSSLRDILNQITKPNDVYSFSLASRLYAEERYPILPEYLQCVKELYRGGLEPINFQTAADQARELINSWVESQTNGIIRNVLQPSSVDSQTAMVLVNAIVFKGLWEKAFKDEDTQAMPFRVTEQESKPVQMMYQIGLFRVASMASEKMKILELPFASGTMSMLVLLPDEVSGLEQLESIINFEKLTEWTSSNVMEERKIKVYLPRMKMEEKYNLTSVLMAMGITDVFSSSANLSGISSAESLKISQAVHAAHAEINEAGREVVGSAEAGVDAASVSEEFRADHPFLFCIKHIATNAVLFFGRCVSP

Experiments:
OVA [1] = assay type: in vivo, Balb/c mice
EG.7 cells = test: Cytotoxic T lymphocyte (CTL) assay, 51Cr release, spleen cells of immunized mice; assay type: in vivo, C57BL/6 mice; conditions: i.n. at 0, 7, 21 d, 10 μg OVA/immunization; spleen cells at 36-42 d; target EG.7 cells
Protocol: For conducting cytotoxic (cytotolytic) T Lymphocyte (CTL) assays, EL-4 and EG.7 (subclone of EL-4 that has been stably transfected with the gene encoding for OVA expression), cell lines were obtained from the American Type Culture Collection (ATCC, Manassas, Va., USA). Both cell lines were maintained in RPMI 1640 medium (Life Technologies, Grand Island, N.Y.) supplemented with 8% fetal bovine serum (FBS, Invitrogen Canada, Inc., Burlington, Ontario, Canada), except that 400 μg/ml G418 supplement (Invitrogen Canada Inc.) was also added for maintaining the EG.7 cell line. All cells were cultured at 37° C. in a humidified atmosphere of air containing 8% CO2. […]
After 5 days incubation (37° C., 8% CO2 in air), the cells were recovered, washed, and counted for use as effector cells for the CTL assay. […] The culture supernatants were collected and the released radioactivity in 70 μl aliquots for gamma counter or in 50 μl aliquots for beta counter, was measured after adding to 150 μl Optiphase Supermix^R scintillant (PerkinElmer LAS Canada, Inc., Woodbridge, Ontario, Canada). Percent specific cell lysis was calculated as 100×[(cpm experimental−cpm spontaneous)/cpm maximum−cpm spontaneous)]. […]

OVA [2] = test: Anti-OVA antibody responses (ELISA) in immunized C57BL/6 mice; conditions: i.n. at 0, 7, 21 d, 10 μg OVA/immunization; 28 d

Molecule | anti-OVA IgA responses (OVA [1]; mouse, in vivo) | CTL response, specific cell lysis (EG.7 cells) | anti-OVA IgA responses in fecal, vaginal wash and serum samples (OVA [2]) | serum IgG, IgG1 and IgG2a responses (OVA [2]) | anti-OVA IgA antibody responses (fecal, vaginal, nasal, bile, serum) (OVA [1]; 28 d)
B1 | negligible to not measurable | no CTL response | Little to no measurable | measurable, but smaller | –
B2 | – | – | – | – | little or no measurable
